T1: p41 (Pyrococcus furiosus, UniProt Q9P9H1 SEQ:1-347)
T1 sequence: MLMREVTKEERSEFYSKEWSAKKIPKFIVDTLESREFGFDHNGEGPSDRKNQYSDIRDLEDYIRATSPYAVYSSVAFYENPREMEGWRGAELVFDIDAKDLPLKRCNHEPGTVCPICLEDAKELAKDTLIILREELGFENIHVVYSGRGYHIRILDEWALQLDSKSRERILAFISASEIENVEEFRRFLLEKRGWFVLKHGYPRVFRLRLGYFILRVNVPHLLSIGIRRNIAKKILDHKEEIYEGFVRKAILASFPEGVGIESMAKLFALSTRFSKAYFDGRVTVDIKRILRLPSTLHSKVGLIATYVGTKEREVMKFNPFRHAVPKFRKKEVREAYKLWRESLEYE

T2: p46 (Pyrococcus furiosus, UniProt Q8U4H7 SEQ:1-396)
T2 sequence: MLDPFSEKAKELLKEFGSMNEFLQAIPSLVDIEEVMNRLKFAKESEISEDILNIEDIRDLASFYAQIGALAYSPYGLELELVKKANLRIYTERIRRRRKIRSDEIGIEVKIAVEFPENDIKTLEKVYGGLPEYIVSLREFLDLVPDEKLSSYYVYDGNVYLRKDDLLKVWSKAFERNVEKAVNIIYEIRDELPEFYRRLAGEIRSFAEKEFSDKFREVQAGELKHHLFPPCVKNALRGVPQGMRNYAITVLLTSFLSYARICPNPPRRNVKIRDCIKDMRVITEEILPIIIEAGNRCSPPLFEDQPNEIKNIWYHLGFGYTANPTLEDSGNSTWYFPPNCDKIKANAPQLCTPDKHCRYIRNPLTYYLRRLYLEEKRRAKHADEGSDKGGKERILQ

T3: p41-p46 complex (DNA primase/polymerase) (Pyrococcus furiosus, UniProt Q9P9H1;Q8U4H7 SEQ:1-347,SEQ:1-396)
T3 sequence 1: T1 sequence
T3 sequence 2: T2 sequence

B1: 49-mer annealed to complementary 49-mer (dsDNA)
DNA 1: AGCTACCATGCCTGCACGAATTAAGCAATTCGTAATCATGGTCATAGCT
DNA 2: AGCTATGACCATGATTACGAATTGCTTAATTCGTGCAGGCATGGTAGCT

How the values were obtained:
p41 = biological target: T1, p41; test: EMSA; no band shift for p41 alone, data not shown; settings: tags: N-terminal His6, label: 5'-32P
Method: (§1) The gel-shift assey was used to detect binding activity that binds enzyme to DNA. 49 chain-length oligodeoxynuclotide, 5′-d[…] GCT-3′ was labeled with ³²P at 5′ terminal. Then the chain was used for gel-shift assey with itself or annealed with 49 or 17 chain length complementary oligodeoxynuclotide. With these three kinds of DNA, and the proteins were mixed in variety of concentrations in gel-shift assey buffer (50 mM Tris.Cl, pH8.0, 10 mM MgCl₂, 20 mM KCl, and 1 mM β-mercaptoethanol). The mixtures were left for 5 minutes under temperature of 55° C. and separated by electrophoreting with 1% agarose gel. The gel was processed by 0.1×TAE buffer (4 mM Tris-Acetate, pH8.0, 0.1 mM EDTA) and electrophoreted with same buffer. Autoradiography after the electrophoration was shown in FIG. 5. p41-p46 complex bound to all types of DNA and shifted the band as the complex.

p46 = biological target: T2, p46; test: EMSA; no band shift for p46 alone, data not shown; settings: label: 5'-32P
Method: as §1

[1] = biological target: T3, p41-p46 complex (DNA primase/polymerase); test: EMSA; 50 mM Tris-Cl pH 8.0, 10 mM MgCl2, 20 mM KCl, 55 C; settings: tags: N-terminal His6 on p41, p46 untagged, label: 5'-32P
Method: as §1

Binder	binding result (p41)	binding result (p46)	binding result [1]	binding result (p41; full duplex)	binding result (p46; full duplex)	binding result ([1]; full duplex)
AGCTACCATGCCTGCACGAATTAAGCAATTCGTAATCATGGTCATAGCT (ssDNA) [49-mer oligodeoxynucleotide]	no binding	no binding	binds	–	–	–
B1	–	–	–	no binding	no binding	binds

Reference: patent publication US20040014072, “Novel dna synthase” (published 2004)
